In paper PMC12325614 (Nature Communications, 2025):

Target: 4-Ig human B7H3 (analyte of the Biacore SPR) (Homo sapiens, UniProt Q5ZPR3)
Experiment: SPR

Chain of 4-Ig human B7H3 (analyte of the Biacore SPR) (Q5ZPR3 29-466): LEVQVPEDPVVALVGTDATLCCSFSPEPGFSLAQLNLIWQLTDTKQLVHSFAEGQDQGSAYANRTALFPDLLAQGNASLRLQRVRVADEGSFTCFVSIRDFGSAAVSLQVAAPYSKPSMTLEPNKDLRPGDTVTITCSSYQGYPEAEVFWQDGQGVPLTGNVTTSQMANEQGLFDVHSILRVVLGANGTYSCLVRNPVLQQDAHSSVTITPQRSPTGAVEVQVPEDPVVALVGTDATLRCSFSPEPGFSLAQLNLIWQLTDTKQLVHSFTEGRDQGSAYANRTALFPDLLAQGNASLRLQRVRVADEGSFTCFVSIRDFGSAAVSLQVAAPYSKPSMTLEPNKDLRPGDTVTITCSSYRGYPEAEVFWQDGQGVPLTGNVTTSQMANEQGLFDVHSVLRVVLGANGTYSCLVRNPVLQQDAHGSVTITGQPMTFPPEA

Kd [nM] | Binder
0.44 | TE9 whole antibody in human IgG1 format (antibody, V domains shown) VH: QVQLQQSGAALVKPGTSVKLSCKASGYTFTSYWMHWVKQRPGQGLEWIGMIHPKSGSVDYNEKFTNKATLTGDKSSGTAYMQLSSLTSEDSAVYYCARGGYGSPFDYWGQGTTVTVSS VL: ENVLTQSPAIMSASPGEKVTMTCSASSSVSYMYWYQQKPGSSPRLLIYRTSNLASGVPARFSGSGSGTSYSLTISSMEAEDAATYYCQQWSSNPPTFGGGTKLEIK
1.61 | MGA271 whole antibody in human IgG1 format (antibody, V domains shown) VH: EVQLVESGGGLVQPGGSLRLSCAASGFTFSSFGMHWVRQAPGKGLEWVAYISSDSSAIYYADTVKGRFTISRDNAKNSLYLQMNSLRDEDTAVYYCGRGRENIYYGSRLDYWGQGTTVTVSS VL: DIQLTQSPSFLSASVGDRVTITCKASQNVDTNVAWYQQKPGKAPKALIYSASYRYSGVPSRFSGSGSGTDFTLTISSLQPEDFATYYCQQYNNYPFTFGQGTKLEIK
